Data: patent US20180057604A1 (Genentech, published 2018)
Like-named read-outs stand apart in the source and are kept apart here. Blank lines part the entries; values can stand above or below the binder they belong to.

Key:
[1] = biological target: T1, human TfR extracellular domain with N-terminal His tag (human, UniProt P02786 89-760); experiment: SPR, Fab
T1 construct: Biotinylated in some assays; also called huTfR; HuTfR

[2] = biological target: T2, cyno TfR extracellular domain (analogous construct to human TfR ecd) (cynomolgus monkey, UniProt Q5RDH6 87-760 (Pongo abelii entry)); experiment: SPR, Fab
T2 construct: also called cynoTfR ecd
T2 chain: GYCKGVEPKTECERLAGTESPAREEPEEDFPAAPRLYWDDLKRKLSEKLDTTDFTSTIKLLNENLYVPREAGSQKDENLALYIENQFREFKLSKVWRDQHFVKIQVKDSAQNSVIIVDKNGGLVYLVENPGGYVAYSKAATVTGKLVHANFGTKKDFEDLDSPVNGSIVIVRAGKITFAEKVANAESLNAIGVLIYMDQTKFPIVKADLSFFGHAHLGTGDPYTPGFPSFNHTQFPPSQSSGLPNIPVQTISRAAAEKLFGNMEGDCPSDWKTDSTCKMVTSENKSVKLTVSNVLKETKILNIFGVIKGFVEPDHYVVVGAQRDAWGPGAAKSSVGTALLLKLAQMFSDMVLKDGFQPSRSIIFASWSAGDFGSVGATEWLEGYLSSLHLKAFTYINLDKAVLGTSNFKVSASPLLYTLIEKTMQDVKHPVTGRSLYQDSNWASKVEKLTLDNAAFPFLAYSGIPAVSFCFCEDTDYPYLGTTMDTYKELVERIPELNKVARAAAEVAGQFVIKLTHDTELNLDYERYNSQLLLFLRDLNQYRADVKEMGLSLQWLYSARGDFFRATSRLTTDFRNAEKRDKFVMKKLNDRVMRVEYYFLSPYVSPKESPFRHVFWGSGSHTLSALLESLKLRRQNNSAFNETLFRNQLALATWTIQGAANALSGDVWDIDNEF

[3] = biological target: T2, cyno TfR extracellular domain …; experiment: SPR, KD on cyno TfR over KD on human TfR
[4] = biological target: T1, human TfR extracellular domain with …; experiment: SPR, TfR captured by anti-His, Fab injected;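 further: single cycle kinetics with a Fab dilution series, fitted by a one-to-one Langmuir model or a steady state model, KD taken as koff over kon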
[5] = biological target: T2, cyno TfR extracellular domain …; experiment: SPR, TfR captured by anti-His, Fab injected;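 further: single cycle kinetics with a Fab dilution series, fitted by a one-to-one Langmuir model or a steady state model, KD taken as koff over kon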
[6] = biological target: T1, human TfR extracellular domain with …; experiment: ELISA, IgG;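 further: ELISA of IgG-containing supernatants tested in 1:5 serial dilutions for 1 h, bound antibody read out with HRP anti-kappa antibody and TMB substrate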
[7] = biological target: T2, cyno TfR extracellular domain …; experiment: ELISA, IgG;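 further: ELISA of IgG-containing supernatants tested in 1:5 serial dilutions for 1 h, bound antibody read out with HRP anti-kappa antibody and TMB substrate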
[8] = biological target: T1, human TfR extracellular domain with …; experiment: SPR SCK 1:1 fit, IgG
[9] = biological target: T2, cyno TfR extracellular domain …; experiment: SPR SCK 1:1 fit, IgG
[10] = biological target: T1, human TfR extracellular domain with …; experiment: SPR steady state, IgG
[11] = biological target: T2, cyno TfR extracellular domain …; experiment: SPR steady state, IgG
human BACE1 ECD [12] = biological target: T3, human BACE1 ECD; experiment: Octet, pH 5.0
T3 construct: analyte of the Octet assay (200 nM) and enzyme of the first short substrate assay; also called human BACE1 extracellular domain
T3 sequence (single chain, as listed by the source limits assumed): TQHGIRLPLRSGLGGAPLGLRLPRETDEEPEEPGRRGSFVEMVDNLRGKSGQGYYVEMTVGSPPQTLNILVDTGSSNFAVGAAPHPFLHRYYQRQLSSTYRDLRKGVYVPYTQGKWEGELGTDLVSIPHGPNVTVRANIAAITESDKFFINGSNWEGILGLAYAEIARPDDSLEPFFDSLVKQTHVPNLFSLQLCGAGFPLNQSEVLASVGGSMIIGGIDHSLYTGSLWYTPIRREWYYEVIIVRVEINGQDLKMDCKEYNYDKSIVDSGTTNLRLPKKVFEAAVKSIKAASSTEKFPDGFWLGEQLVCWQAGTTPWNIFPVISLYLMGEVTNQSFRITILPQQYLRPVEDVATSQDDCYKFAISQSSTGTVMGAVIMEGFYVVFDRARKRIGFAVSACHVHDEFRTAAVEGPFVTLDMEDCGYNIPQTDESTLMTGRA

murine BACE1 ECD [13] = biological target: T4, murine BACE1 ECD; experiment: Octet, pH 5.0
T4 construct: analyte of the Octet assay (200 nM) and enzyme of the first short substrate assay
T4 sequence (single chain, as listed by the source limits assumed): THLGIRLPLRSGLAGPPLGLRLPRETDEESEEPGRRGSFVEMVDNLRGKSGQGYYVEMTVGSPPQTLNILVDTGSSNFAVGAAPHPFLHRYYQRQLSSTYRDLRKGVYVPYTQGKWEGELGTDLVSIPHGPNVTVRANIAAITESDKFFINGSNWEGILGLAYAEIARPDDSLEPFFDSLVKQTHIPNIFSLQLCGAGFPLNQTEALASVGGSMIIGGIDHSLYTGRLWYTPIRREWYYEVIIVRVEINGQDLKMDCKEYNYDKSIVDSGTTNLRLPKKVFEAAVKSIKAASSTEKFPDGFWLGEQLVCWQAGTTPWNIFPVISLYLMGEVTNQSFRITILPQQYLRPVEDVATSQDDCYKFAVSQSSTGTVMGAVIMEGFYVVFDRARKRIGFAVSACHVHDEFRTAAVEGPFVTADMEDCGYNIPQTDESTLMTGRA

human BACE1 ECD [14] = biological target: T3, human BACE1 ECD; experiment: Octet, pH 7.5
murine BACE1 ECD [15] = biological target: T4, murine BACE1 ECD; experiment: Octet, pH 7.5
[16] = biological target: T5, human BACE1 (R&D Systems) (human, UniProt P56817); experiment: SPR (Biacore)
T5 construct: recombinant, commercial (R&D Systems)
T5 sequence (P56817 22-457 limits assumed): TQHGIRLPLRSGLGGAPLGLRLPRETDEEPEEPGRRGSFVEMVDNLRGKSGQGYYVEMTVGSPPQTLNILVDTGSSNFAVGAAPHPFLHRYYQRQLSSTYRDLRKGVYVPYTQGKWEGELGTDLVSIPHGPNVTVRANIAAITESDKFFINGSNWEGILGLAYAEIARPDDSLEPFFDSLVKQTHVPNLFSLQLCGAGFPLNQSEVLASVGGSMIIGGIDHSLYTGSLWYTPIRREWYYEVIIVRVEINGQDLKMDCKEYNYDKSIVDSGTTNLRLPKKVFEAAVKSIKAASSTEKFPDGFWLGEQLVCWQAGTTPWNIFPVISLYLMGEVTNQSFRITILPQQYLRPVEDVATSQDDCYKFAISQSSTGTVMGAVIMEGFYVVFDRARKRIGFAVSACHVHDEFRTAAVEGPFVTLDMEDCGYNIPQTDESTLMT

human BACE1 ECD [17] = biological target: T3, human BACE1 ECD; experiment: cell-based or functional assay
murine BACE1 ECD [18] = biological target: T4, murine BACE1 ECD; experiment: cell-based or functional assay
[19] = biological target: T6, BACE1 (HTRF long substrate and FRET short substrate assays of Example 9D); experiment: cell-based or functional assay
[20] = biological target: T7, BACE1 in primary mouse cortical neurons (mouse, UniProt P56818 46-501); experiment: cell-based or functional assay
T7 sequence (P56818 46-501): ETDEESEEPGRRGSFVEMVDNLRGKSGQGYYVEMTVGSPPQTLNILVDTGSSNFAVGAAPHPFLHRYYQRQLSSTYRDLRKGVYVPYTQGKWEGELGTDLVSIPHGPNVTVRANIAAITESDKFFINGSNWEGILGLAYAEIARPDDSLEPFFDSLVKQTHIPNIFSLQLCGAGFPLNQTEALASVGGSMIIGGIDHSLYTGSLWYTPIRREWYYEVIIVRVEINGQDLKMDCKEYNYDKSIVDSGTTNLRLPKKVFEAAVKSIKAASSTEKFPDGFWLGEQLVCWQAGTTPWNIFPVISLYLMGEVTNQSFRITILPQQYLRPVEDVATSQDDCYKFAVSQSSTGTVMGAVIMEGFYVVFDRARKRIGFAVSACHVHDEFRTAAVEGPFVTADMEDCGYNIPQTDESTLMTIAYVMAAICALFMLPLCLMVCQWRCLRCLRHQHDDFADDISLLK

human BACE1 ECD [21] = biological target: T3, human BACE1 ECD; experiment: Octet, pH 5.0, second run
murine BACE1 ECD [22] = biological target: T4, murine BACE1 ECD; experiment: Octet, pH 5.0, second run
human BACE1 ECD [23] = biological target: T3, human BACE1 ECD; experiment: Octet, pH 7.5, second run
murine BACE1 ECD [24] = biological target: T4, murine BACE1 ECD; experiment: Octet, pH 7.5, second run
[25] = biological target: T5, human BACE1 (R&D Systems); experiment: SPR (Biacore), second run
human BACE1 ECD [26] = biological target: T3, human BACE1 ECD; experiment: Octet, pH 5.0; remark: listed apart in the source
murine BACE1 ECD [27] = biological target: T4, murine BACE1 ECD; experiment: Octet, pH 5.0; remark: listed apart in the source
human BACE1 ECD [28] = biological target: T3, human BACE1 ECD; experiment: Octet, pH 7.5; remark: listed apart in the source
murine BACE1 ECD [29] = biological target: T4, murine BACE1 ECD; experiment: Octet, pH 7.5; remark: listed apart in the source
[30] = biological target: T5, human BACE1 (R&D Systems); experiment: SPR (Biacore); remark: listed apart in the source
[31] = biological target: T7, BACE1 in primary mouse cortical neurons; experiment: cell-based or functional assay; remark: listed apart in the source
human BACE1 ECD [32] = biological target: T3, human BACE1 ECD; experiment: Octet, pH 5.0; remark: listed apart in the source
murine BACE1 ECD [33] = biological target: T4, murine BACE1 ECD; experiment: Octet, pH 5.0; remark: listed apart in the source
human BACE1 ECD [34] = biological target: T3, human BACE1 ECD; experiment: Octet, pH 7.5; remark: listed apart in the source
murine BACE1 ECD [35] = biological target: T4, murine BACE1 ECD; experiment: Octet, pH 7.5; remark: listed apart in the source
[36] = biological target: T5, human BACE1 (R&D Systems); experiment: SPR (Biacore); remark: listed apart in the source
[37] = biological target: T6, BACE1 (HTRF long substrate and FRET …); experiment: cell-based or functional assay; remark: listed apart in the source

Kd [1]: 0.4 nM
Kd [2]: 4.3 nM
Cy/hu ratio [3]: 11
koff [4]: 0.000317 s⁻¹
kon [4]: 910000 M⁻¹ s⁻¹
koff [5]: 0.00162 s⁻¹
kon [5]: 378000 M⁻¹ s⁻¹
B1: hu7A4.v15.Fab (Fab, V domains shown)
VH: EVQLVQSGAEVKKPGASVKVSCKGSGYTFTDYAMHWVRQAPGQGLEWMGGISTYFGRTNYNQKFKGRVTMTVDTSISTAYMELSRLRSDDTAVYYCARGLSGNYVMDYWGQGTTVTVSS
VL: DIVMTQSPDSLAVSLGERATINCRASESVDSYGNSFMHWYQQKPGQPPKLLIYRASNLESGVPDRFSGSGSRTDFTLTISSLQAEDVAVYYCQQSNEAPPTFGQGTKLEIK
notes: Fab

EC50 [6]: 0.017 µg/mL
EC50 [7]: 0.0822 µg/mL
Kd [8]: 11 nM
Kd [9]: 22 nM
Kd [10]: 19 nM
Kd [11]: 77 nM
B2: N99A (antibody, V domains shown)
VH: EVQLVQSGAEVKKPGASVKVSCKGSGYTFTDYAMHWVRQAPGQGLEWMGGISTYFGRTNYNQKFKGRVTMTVDTSISTAYMELSRLRSDDTAVYYCARGLSGAYVMDYWGQGTTVTVSS
VL: DIVMTQSPDSLAVSLGERATINCRASESVDSYGNSFMHWYQQKPGQPPKLLIYRASNLESGVPDRFSGSGSRTDFTLTISSLQAEDVAVYYCQQSNEAPPTFGQGTKLEIK
notes: also called 7A4.v15 N99A (CDR-H3) IgG; copies: 2 + 2

EC50 [6]: 0.0093 µg/mL
EC50 [7]: 0.181 µg/mL
Kd [8]: 16 nM
Kd [9]: 570 nM
Kd [10]: 41 nM
Kd [11]: 329 nM
B3: Q90A (antibody, V domains shown)
VH: EVQLVQSGAEVKKPGASVKVSCKGSGYTFTDYAMHWVRQAPGQGLEWMGGISTYFGRTNYNQKFKGRVTMTVDTSISTAYMELSRLRSDDTAVYYCARGLSGNYVMDYWGQGTTVTVSS
VL: DIVMTQSPDSLAVSLGERATINCRASESVDSYGNSFMHWYQQKPGQPPKLLIYRASNLESGVPDRFSGSGSRTDFTLTISSLQAEDVAVYYCQASNEAPPTFGQGTKLEIK
notes: also called 7A4.v15 Q90A (CDR-L3) IgG

Kd (human BACE1 ECD [12]): 3 nM
Kd (murine BACE1 ECD [13]): 3.1 nM
Kd (human BACE1 ECD [14]): 1.9 nM
Kd (murine BACE1 ECD [15]): 2.9 nM
Kd [16]: 3.4 nM
% inhibition of BACE1 activity, short FRET substrate (human BACE1 ECD [17]): -4%
% inhibition of BACE1 activity, short FRET substrate (murine BACE1 ECD [18]): -3%
EC50, FRET short substrate [19]: 3.35 nM
EC50, HTRF long substrate [19]: 3.46 nM
IC50, Abeta x-40 in mouse cortical neurons [20]: 2.7 nM
IC50, Abeta x-40 in mouse cortical neurons (5896*, second run) [20]: 5.72 nM
maximal % inhibition of Abeta x-40 [20]: 65%
Kd (human BACE1 ECD [21]): 1.1 nM
Kd (murine BACE1 ECD [22]): 1 nM
Kd (human BACE1 ECD [23]): 0.71 nM
Kd (murine BACE1 ECD [24]): 0.8 nM
Kd [25]: 5.18 nM
B4: 5896 (antibody, V domains shown)
VH: QLQLQESGPGLVKPSETLSLTCTVSGGSISSSSYYWGWIRQPPGKGLEWIGSIYRSGSTYYNPSLKSRVTISVDTSKNQFSLKLSSVTAADTAVYYCARVGHGISYFDLWGRGTLVTVSS
VL: EIVLTQSPATLSLSPGERATLSCRASQSVSSYLAWYQQKPGQAPRLLIYDASNRATGIPARFSGSGSGTDFTLTISSLEPEDFAVYYCQQSLTWPPRTFGGGTKVEIK
notes: anti-BACE1 IgG

Kd (human BACE1 ECD [26]): 0.44 nM
Kd (murine BACE1 ECD [27]): 0.5 nM
Kd (human BACE1 ECD [28]): 0.46 nM
Kd (murine BACE1 ECD [29]): 0.47 nM
Kd [30]: 1.63 nM
IC50, Abeta x-40 in mouse cortical neurons [31]: 0.17 nM
maximal % inhibition of Abeta x-40 [31]: 71%
B5: 6310 (antibody, V domains shown)
VH: QLQLQESGPGLVKPSETLSLTCTVSGGSISWSSYYWSWIRQPPGKGLEWIGSIYRSGRTYYNPSLKSRVTISVDTSKNQFSLKLSSVTAADTAVYYCARVGHGINYFDLWGRGTLVTVSS
VL: EIVLTQSPATLSLSPGERATLSCRASQSVSSYLAWYQQKPGQAPRLLIYDASNRATGIPARFSGSGSGTDFTLTISSLEPEDFAVYYCQQSVTWPPRTFGGGTKVEIK
notes: anti-BACE1 IgG

Kd (human BACE1 ECD [32]): 2.2 nM
Kd (murine BACE1 ECD [33]): 2.3 nM
Kd (human BACE1 ECD [34]): 1.1 nM
Kd (murine BACE1 ECD [35]): 1.4 nM
Kd [36]: 3.58 nM
% inhibition of BACE1 activity, short FRET substrate (human BACE1 ECD [17]): -102%
% inhibition of BACE1 activity, short FRET substrate (murine BACE1 ECD [18]): -230%
EC50, FRET short substrate [37]: 0.482 nM
EC50, HTRF long substrate [37]: 5.5 nM
IC50, Abeta x-40 in mouse cortical neurons [20]: 1.74 nM
IC50, Abeta x-40 in mouse cortical neurons (5887*, second run) [20]: 2.53 nM
maximal % inhibition of Abeta x-40 [20]: 75%
Kd (human BACE1 ECD [21]): 1.4 nM
Kd (murine BACE1 ECD [22]): 1.8 nM
Kd (human BACE1 ECD [23]): 0.45 nM
Kd (murine BACE1 ECD [24]): 0.54 nM
Kd [25]: 7.08 nM
B6: 5887 (antibody, V domains shown)
VH: QVQLVQSGAEVKKPGSSVKVSCKASGGTFRGYAISWVRQAPGQGLEWMGNIIPGFGTANYAQKFQGRVTITADESTSTAYMELSSLRSEDTAVYYCARSGGTKYGMLDVWGQGTMVTVSS
VL: EIVMTQSPATLSVSPGERATLSCRASQSVSSNLAWYQQKPGQAPRLLIYGASTRATGIPARFSGSGSGTEFTLTISSLQSEDFAVYYCQQLILWPPRTFGGGTKVEIK
notes: anti-BACE1 IgG

Kd (human BACE1 ECD [26]): < 0.26 nM
Kd (murine BACE1 ECD [27]): < 0.32 nM
Kd (human BACE1 ECD [28]): < 0.32 nM
Kd (murine BACE1 ECD [29]): < 0.35 nM
Kd [30]: 3.09 nM
IC50, Abeta x-40 in mouse cortical neurons [31]: 4.1 nM
maximal % inhibition of Abeta x-40 [31]: 76%
B7: 6303 (antibody, V domains shown)
VH: QVQLVQSGAEVKKPGSSVKVSCKASGGTLSGYAISWVRQAPGQGLEWMGNIIPGFGTANYAQKSQGRVTITADESTSTAYMELSSLRSEDTAVYYCARSGGTRYGMLDVWGQGTMVTVSS
VL: EIVMTQSPATLSVSPGERATLSCRASQSVSSNLAWYQQKPGQAPRLLIFGASTRATGIPARFSGSGSGTEFTLTISSLQSEDFAVYYCQQLLTWPPRTFGGGTKVEIK
notes: anti-BACE1 IgG
